Source: the Human Domainome abundance scans (Beltran et al. 2025)
± gives the uncertainty stated by the source.

B1: Nucleosome-remodeling factor subunit BPTF, residues 2862 to 2918; numbered along this chain, Q12830 (parent)
chain: TKKDTKLYCICKTPYDESKFYIGCDRCQNWYHGRCVGILQSEAELIDEYVCPQCQST

Variants of: B1
Assay: abundance fitness (aPCA) (normalised: wild type 0, dead -1); higher = more abundant; growth selection in yeast, the domain comes from the species named
Conditions: Homo sapiens

| Variant | abundance fitness |
| --- | --- |
| E48W | -0.295 ± 0.12 |
| E48H | -0.062 ± 0.11 |
| L45H | 0.101 ± 0.11 |
| L45R | 0.04 ± 0.07 |
| L45P | -0.309 ± 0.086 |
| L45N | -0.017 ± 0.1 |
| L45M | -0.219 ± 0.11 |
| L45V | -0.001 ± 0.08 |
| L45K | -0.018 ± 0.11 |
| L45T | -0.03 ± 0.099 |
| L45W | -0.185 ± 0.1 |
| L45D | -0.04 ± 0.11 |
| L45A | -0.111 ± 0.081 |
| L45S | -0.075 ± 0.077 |
| L45I | -0.128 ± 0.096 |
| L45Y | -0.179 ± 0.1 |
| L45G | -0.053 ± 0.076 |
| V36D | -0.801 ± 0.14 |
| V36K | -0.531 ± 0.16 |
| V36L | -0.123 ± 0.074 |
| V36N | -0.393 ± 0.13 |
| V36Q | -0.862 ± 0.21 |
| V36I | -0.109 ± 0.094 |
| V36G | -0.863 ± 0.12 |

| Variant | abundance fitness |
| --- | --- |
| V36C | -0.572 ± 0.14 |
| V36Y | -0.957 ± 0.17 |
| V36F | -0.832 ± 0.14 |
| V36H | -0.785 ± 0.18 |
| V36A | -0.565 ± 0.098 |
| V36P | -0.983 ± 0.13 |
| V36W | -0.927 ± 0.22 |
| V36S | -0.669 ± 0.092 |
| V36M | -0.381 ± 0.12 |
| G37S | -0.074 ± 0.07 |
| G37Q | -0.216 ± 0.15 |
| G37C | -0.379 ± 0.092 |
| G37L | -0.411 ± 0.08 |
| G37P | -0.99 ± 0.15 |
| G37K | -0.009 ± 0.1 |
| G37W | -0.681 ± 0.13 |
| G37Y | -0.418 ± 0.12 |
| G37F | -0.418 ± 0.11 |
| G37M | -0.359 ± 0.12 |
| G37R | -0.207 ± 0.073 |
| G37I | -0.882 ± 0.16 |
| G37A | -0.277 ± 0.082 |
| G37H | -0.157 ± 0.13 |
| G37N | -0.158 ± 0.18 |

| Variant | abundance fitness |
| --- | --- |
| G37E | -0.23 ± 0.1 |
| E42R | -0.403 ± 0.12 |
| E42P | -0.342 ± 0.097 |
| E42C | -0.129 ± 0.23 |
| E42A | -0.099 ± 0.091 |
| E42W | -0.539 ± 0.18 |
| E42M | -0.288 ± 0.15 |
| E42G | -0.294 ± 0.13 |
| E42Y | -0.304 ± 0.21 |
| E42V | -0.269 ± 0.12 |
| E42T | -0.37 ± 0.11 |
| E42F | -0.274 ± 0.18 |
| E42L | -0.468 ± 0.11 |
| E42N | -0.279 ± 0.17 |
| E42D | -0.003 ± 0.2 |
| E42S | -0.205 ± 0.094 |
| E42K | -0.083 ± 0.11 |
| E42Q | -0.021 ± 0.1 |
| Q40H | 0.002 ± 0.17 |
| Q40T | -0.127 ± 0.14 |
| Q40F | -0.201 ± 0.2 |
| Q40K | -0.214 ± 0.13 |
| Q40C | -0.12 ± 0.18 |
| Q40E | -0.036 ± 0.093 |

| Variant | abundance fitness |
| --- | --- |
| Q40M | -0.244 ± 0.14 |
| Q40V | -0.19 ± 0.11 |
| Q40W | -0.371 ± 0.12 |
| Q40D | -0.126 ± 0.25 |
| Q40A | -0.072 ± 0.093 |
| Q40N | -0.296 ± 0.17 |
| Q40P | -0.2 ± 0.11 |
| Q40I | -0.378 ± 0.17 |
| Q40Y | -0.306 ± 0.17 |
| Q40L | -0.282 ± 0.1 |
| Q40G | -0.062 ± 0.093 |
| Q40S | -0.049 ± 0.078 |
| D47E | 0.101 ± 0.099 |
| D47W | -0.326 ± 0.12 |
| D47Q | 0.077 ± 0.1 |
| D47L | -0.058 ± 0.072 |
| D47K | 0.089 ± 0.093 |
| D47S | -0.053 ± 0.067 |
| D47G | 0.054 ± 0.068 |
| D47R | -0.044 ± 0.071 |
| D47A | 0.003 ± 0.073 |
| D47F | -0.219 ± 0.13 |
| D47I | -0.227 ± 0.18 |
| D47V | -0.138 ± 0.088 |

| Variant | abundance fitness |
| --- | --- |
| D47N | -0.03 ± 0.087 |
| D47C | -0.043 ± 0.15 |
| D47T | -0.051 ± 0.092 |
| D47H | 0.134 ± 0.14 |
| D47M | -0.14 ± 0.14 |
| D47P | -0.107 ± 0.12 |
| E44M | -0.089 ± 0.093 |
| E44A | -0.001 ± 0.1 |
| E44D | 0.027 ± 0.13 |
| E44P | -0.097 ± 0.094 |
| E44W | -0.408 ± 0.11 |
| E44I | -0.193 ± 0.12 |
| E44F | -0.089 ± 0.17 |
| E44R | -0.045 ± 0.083 |
| E44S | -0.048 ± 0.077 |
| E44L | -0.11 ± 0.077 |
| E44T | -0.165 ± 0.088 |
| E44K | -0.018 ± 0.093 |
| E44N | -0.116 ± 0.1 |
| E44V | -0.123 ± 0.1 |
| E44C | -0.137 ± 0.1 |
| E44Q | -0.086 ± 0.1 |
| R34P | -0.144 ± 0.075 |
| R34D | 0.105 ± 0.1 |

| Variant | abundance fitness |
| --- | --- |
| R34E | 0.005 ± 0.14 |
| R34Y | -0.107 ± 0.071 |
| R34A | 0.026 ± 0.084 |
| R34M | -0.251 ± 0.11 |
| R34I | -0.164 ± 0.075 |
| R34S | 0.051 ± 0.065 |
| R34Q | 0.01 ± 0.097 |
| R34N | 0.075 ± 0.079 |
| R34F | -0.258 ± 0.085 |
| R34T | -0.065 ± 0.078 |
| R34W | -0.363 ± 0.12 |
| R34K | 0.109 ± 0.1 |
| R34H | 0.035 ± 0.073 |
| C51F | -0.916 ± 0.11 |
| C51Q | -0.98 ± 0.15 |
| C51D | -0.718 ± 0.14 |
| C51S | -0.53 ± 0.089 |
| C51L | -0.889 ± 0.093 |
| C51N | -0.904 ± 0.16 |
| C51E | -0.75 ± 0.096 |
| C51T | -0.981 ± 0.13 |
| C51P | -0.919 ± 0.19 |
| C51R | -0.743 ± 0.088 |
| C51A | -0.777 ± 0.094 |

| Variant | abundance fitness |
| --- | --- |
| C51I | -1.08 ± 0.17 |
| C51H | -0.848 ± 0.23 |
| C51Y | -0.928 ± 0.14 |
| C51K | -0.774 ± 0.16 |
| C51M | -0.688 ± 0.15 |
| C35F | -0.92 ± 0.12 |
| C35E | -0.834 ± 0.16 |
| C35A | -0.827 ± 0.12 |
| C35N | -1.07 ± 0.18 |
| C35D | -0.931 ± 0.17 |
| C35G | -0.958 ± 0.12 |
| C35T | -0.933 ± 0.12 |
| C35K | -0.915 ± 0.13 |
| C35S | -0.75 ± 0.076 |
| C35H | -0.764 ± 0.12 |
| C35M | -0.827 ± 0.13 |
| C35Q | -0.804 ± 0.11 |
| C35L | -0.81 ± 0.083 |
| C35W | -0.981 ± 0.12 |
| C35Y | -0.878 ± 0.12 |
| C35V | -1.06 ± 0.15 |
| C35R | -1.01 ± 0.085 |
| C35P | -0.74 ± 0.14 |
